Values quoted from earlier work as cited in US6051590A, “Immunosuppressant tricyclic compounds” (Merck & Co., Inc., priority 1999, dated 2000).

Molecular target: T1, Kv 1.3 channels (CHO cells transfected with Kv 1.3) (Homo sapiens, UniProt P22001)
T1 construct: expressed in transfected cells; host or cells: CHO cells
Conditions: stated in the method for the reference blocker

T1 sequence (P22001 whole entry): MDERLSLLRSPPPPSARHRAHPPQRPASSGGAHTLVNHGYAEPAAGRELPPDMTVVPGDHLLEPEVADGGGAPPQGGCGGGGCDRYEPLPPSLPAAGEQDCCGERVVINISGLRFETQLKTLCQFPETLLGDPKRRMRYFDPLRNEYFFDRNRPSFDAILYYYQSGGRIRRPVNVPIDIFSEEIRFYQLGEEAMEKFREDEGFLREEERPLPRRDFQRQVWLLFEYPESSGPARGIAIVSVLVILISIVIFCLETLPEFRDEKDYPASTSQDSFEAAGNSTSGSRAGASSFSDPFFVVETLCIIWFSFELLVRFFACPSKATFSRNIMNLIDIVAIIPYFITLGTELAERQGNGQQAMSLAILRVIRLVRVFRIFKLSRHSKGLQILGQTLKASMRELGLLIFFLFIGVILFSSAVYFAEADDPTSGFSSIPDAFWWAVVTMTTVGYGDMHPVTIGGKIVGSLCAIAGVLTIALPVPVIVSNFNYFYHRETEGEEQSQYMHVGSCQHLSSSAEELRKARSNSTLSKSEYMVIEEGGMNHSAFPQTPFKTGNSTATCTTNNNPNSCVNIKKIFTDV

Q: Which IC50 does the source give for “margatoxin (TIINVKCTSPKQCLPPCKAQFGQSAGAKCMNGKCKCYPH; UniProt P40755 1-39, looked up)” here?
A: 100 pM
